The results in this text go back to paper PMC10397247.

Where two headings read alike, the source gives them in different places.

What all share (assay): two-hybrid library CCNG1;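 note: natural log of median RNA to DNA barcode read ratio; higher means stronger binding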
One assay deals with T1, 4H3070-bA.
T1 chain: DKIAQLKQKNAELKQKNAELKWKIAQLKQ

A further assay deals with T2, 4H496-bA.
T2 chain: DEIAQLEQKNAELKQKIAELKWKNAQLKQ

For another assay, the target named is T3, 4H342-bA.
T3 chain: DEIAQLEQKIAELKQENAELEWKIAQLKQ

In another assay the target is T4, 4H883-bA.
T4 chain: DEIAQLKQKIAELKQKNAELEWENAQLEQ

The target in the next assay is T5, 4H3632-bA.
T5 chain: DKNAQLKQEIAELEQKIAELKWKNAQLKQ

The target in the next assay is T6, 4H3907-bN.
T6 chain: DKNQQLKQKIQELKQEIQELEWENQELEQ

A further assay deals with T7, 4H363-bN.
T7 chain: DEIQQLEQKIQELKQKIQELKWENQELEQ

The next assay addresses T8, 4H470-bN.
T8 chain: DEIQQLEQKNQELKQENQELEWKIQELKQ

In the next assay the target is T9, 4H344-bN.
T9 chain: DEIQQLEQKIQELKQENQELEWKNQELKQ

A further assay addresses T10, 4H3961-bN.
T10 chain: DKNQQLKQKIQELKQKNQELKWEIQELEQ

The next assay deals with T11, 4H3298-bH.
T11 chain: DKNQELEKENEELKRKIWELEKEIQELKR

The target of another assay is T12, 4H850-bH.
T12 chain: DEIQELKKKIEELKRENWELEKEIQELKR

In a further assay the target is T13, 4H3277-bH.
T13 chain: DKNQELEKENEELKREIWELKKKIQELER

The next assay deals with T14, 4H3613-bH.
T14 chain: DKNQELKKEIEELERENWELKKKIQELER

The next assay addresses T15, 4H591-bH.
T15 chain: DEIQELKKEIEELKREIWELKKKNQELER

In another assay the target is T16, 4H3926-bH.
T16 chain: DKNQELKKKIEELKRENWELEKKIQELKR

Another assay has as its target T17, 4H906-bH.
T17 chain: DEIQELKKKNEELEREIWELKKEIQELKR

A further assay addresses T18, 4H3628-bH.
T18 chain: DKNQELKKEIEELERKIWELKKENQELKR

For the next assay, the target named is T19, 4H1899-bH.
T19 chain: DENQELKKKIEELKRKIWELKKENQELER

In a further assay the target is T20, 4H3497-bH.
T20 chain: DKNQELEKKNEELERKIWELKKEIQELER

A further assay concerns the target T21, 4H1985-bH.
T21 chain: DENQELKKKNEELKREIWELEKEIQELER

For another assay, the target named is T22, 4H626-bH.
T22 chain: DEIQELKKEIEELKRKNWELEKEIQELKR

The target of another assay is T23, 4H3817-bH.
T23 chain: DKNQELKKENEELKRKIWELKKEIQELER

The next assay deals with T24, 4H1544-bH.
T24 chain: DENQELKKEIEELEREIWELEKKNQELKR

The next assay concerns the target T25, 4H3462-bH.
T25 chain: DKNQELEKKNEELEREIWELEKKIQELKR

The next assay concerns the target T26, 4H570-bH.
T26 chain: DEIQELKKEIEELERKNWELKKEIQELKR

In a further assay the target is T27, 4H3162-bH.
T27 chain: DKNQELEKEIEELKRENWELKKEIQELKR

A further assay addresses T28, 4H3974-bH.
T28 chain: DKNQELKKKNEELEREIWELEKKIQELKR

For a further assay, the target named is T29, 4H3175-bH.
T29 chain: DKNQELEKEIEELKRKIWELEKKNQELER

The next assay addresses T30, 4H3858-bH.
T30 chain: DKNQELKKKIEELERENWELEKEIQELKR

In a further assay the target is T31, 4H1710-bH.
T31 chain: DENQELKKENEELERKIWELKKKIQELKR

B1: 4H3070-bA (peptide)
chain: DKIAQLKQKNAELKQKNAELKWKIAQLKQ
Consider B1, for which the interaction score is -0.355 with 4H3070-bA (mean of both orientations); -1.47 in the assay with 4H496-bA; 1.46 in the assay with 4H342-bA; 0.052 with 4H883-bA; -1.37 with 4H3632-bA.

B2: 4H344-bN (peptide)
chain: DEIQQLEQKIQELKQENQELEWKNQELKQ
For the molecule B2, the interaction score with 4H3907-bN was -2.07; in the assay with 4H363-bN it was -2.06; with 4H470-bN, 0.132; with 4H344-bN it was 0.297; with 4H3961-bN, 0.044.

B3: 4H1544-bH (peptide)
chain: DENQELKKEIEELEREIWELEKKNQELKR
B3: the interaction score with 4H3298-bH was found to be 0.51; in the assay with 4H850-bH, 1.29; with 4H3277-bH, 0.893; with 4H3613-bH, 0.423; with 4H3070-bA, 0.826; with 4H591-bH, 1.2. Also, the interaction score was 0.243 with 4H3926-bH; 0.0592 with 4H906-bH; -0.0215 with 4H3628-bH; 1.61 with 4H1899-bH; 0.211 with 4H3497-bH; 0.533 with 4H1985-bH. The interaction score with 4H626-bH was -0.838; with 4H3817-bH it was 0.913; in the assay with 4H1544-bH, 0.599; with 4H3462-bH, 0.608; with 4H570-bH it was 0.232; in the assay with 4H3162-bH, 0.879. Further, the interaction score with 4H3974-bH is 0.61; with 4H3175-bH, -0.419; in the assay with 4H3858-bH it was 0.651; with 4H1710-bH it was 0.154.
